The assay deals with T1, CaPol32 (wild type, GST tag cleaved) (C. albicans, UniProt A0A1D8PDM8 1-403).
T1 construct: Pol32, smallest subunit of DNA polymerase delta, C. albicans SC5314; ORF amplified from genomic DNA with primers NAP39 (start codon) and NAP40 (stop codon); length 403 aa, 46.0 kDa; source: S. cerevisiae protease deficient strain, purified (glutathione-Sepharose 4B, GST cleaved with PreScission protease); not shown: GST, N-terminal, cleaved
T1 sequence (looked up): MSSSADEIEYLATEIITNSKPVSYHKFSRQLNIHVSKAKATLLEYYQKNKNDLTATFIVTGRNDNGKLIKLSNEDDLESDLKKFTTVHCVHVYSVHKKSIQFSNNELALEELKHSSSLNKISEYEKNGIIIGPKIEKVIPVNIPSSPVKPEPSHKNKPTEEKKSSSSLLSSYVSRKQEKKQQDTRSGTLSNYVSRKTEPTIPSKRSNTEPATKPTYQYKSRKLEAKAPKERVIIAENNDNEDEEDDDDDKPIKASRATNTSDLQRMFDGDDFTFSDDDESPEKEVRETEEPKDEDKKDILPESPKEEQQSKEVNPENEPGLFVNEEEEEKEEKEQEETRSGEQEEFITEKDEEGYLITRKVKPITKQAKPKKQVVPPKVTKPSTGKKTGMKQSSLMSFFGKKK
The experiment in a line: ITC; MicroCal PEAQ-ITC, 25°C, 20 mM HEPES pH 7.4, 150 mM NaCl; 20 μM CaPol32 or CaPol32 (F398A, F399A) in the cell, 250 μM CaPCNA in the syringe, 25 injections of 1.5 μl; one-site binding model. The conditions noted are these: both partners purified. In general terms: In ITC the heat of successive injections is recorded.

We go through 1 molecule from paper PMC9828637, “Pol32, an accessory subunit of DNA polymerase delta, plays an essential role in genome stability and pathogenesis of Candida albicans” (Gut Microbes, 2023).

By Kd is commonly meant the constant that tells how readily two partners part at equilibrium. Low values mean higher affinity, high ones lower affinity. Usually stoichiometry N stands for a count of units in the complex or per binding partner.

B1: CaPCNA (natural protein, C. albicans, UniProt Q5AMN0 1-259, looked up)
chain: MLEGKFEEAALLKKVVEAIKDCVKKCNFNCSEHGITVQAVDDSRVLLVSLLIGQTSFSEYRCDRDVTLGIDLESFSKIIKSANNEDFLTLLAEDSPDQIMAILEEKQKEKISEYSLKLMDIDSEFLQIDDMEYDAVVNMPSSDFAKLVRDLKNLSESLRVVVTKDSVKFTSEGDSGSGSVILKPYTNLKNERESVTISLDDPVDLTFGLKYLNDIVKAATLSDVITIKLADKTPALFEFKMQSGGYLRFYLAPKFDDDE
notes: PCNA (proliferating cell nuclear antigen, DNA sliding clamp), C. albicans; it calls PCNA trimeric without measuring this here; also called proliferating cell nuclear antigen of C. albicans; source: E. coli BL21 DE3, purified (glutathione-Sepharose 4B, GST cleaved with PreScission protease)
B1: the Kd is around 6.75 µM, the dH is around -27 kcal/mol and the “stoichiometry N” value was 1 CaPol32 per PCNA trimer.
